From patent US20210024620A1

Tests used:
[1] = biological target: biotinylated cynomolgus FcRn (cynomolgus) (UniProt Q8SPV9); assay: Biacore, biotin-captured cFcRn, pH 9.0, 1000 nM antibody
rat FcRn (rat) [2] = biological target: rat FcRn (rat) (UniProt P13599); assay: Biacore SPR, pH 7.4
[3] = biological target: biotinylated human FcRn (human) (UniProt P55899); assay: Biacore SPR, pH 7.4
[4] = biological target: biotinylated human FcRn (human) (UniProt P55899); assay: Biacore, biotin-captured hFcRn, pH 7.4, 1000 nM antibody
[5] = biological target: biotinylated cynomolgus FcRn (cynomolgus) (UniProt Q8SPV9); assay: Biacore, biotin-captured cFcRn, pH 8.0
[6] = biological target: biotinylated human FcRn (p51 subunit residues 24-297 with C-terminal Avi-tag; beta2-microglobulin residues 21-119) (human) (UniProt P55899); assay: Biacore SPR, pH 7.4, steady state
[7] = biological target: biotinylated human FcRn (human) (UniProt P55899); assay: Biacore, biotin-captured hFcRn, pH 8.0, 1000 nM antibody
[8] = biological target: biotinylated human FcRn (p51 subunit residues 24-297 with C-terminal Avi-tag; beta2-microglobulin residues 21-119) (human) (UniProt P55899); assay: Biacore SPR, pH 6.0
rat FcRn (rat) [9] = biological target: rat FcRn (rat) (UniProt P13599); assay: Biacore SPR, pH 6.0
[10] = biological target: biotinylated human FcRn (human) (UniProt P55899); assay: Biacore SPR, pH 6.0
[11] = biological target: biotinylated human FcRn (human) (UniProt P55899); assay: Biacore, biotin-captured hFcRn, pH 7.4
[12] = biological target: biotinylated human FcRn (human) (UniProt P55899); assay: Biacore, biotin-captured hFcRn, pH 8.0
[13] = biological target: biotinylated cynomolgus FcRn (cynomolgus) (UniProt Q8SPV9); assay: Biacore, biotin-captured cFcRn, pH 6.0
[14] = biological target: biotinylated cynomolgus FcRn (cynomolgus) (UniProt Q8SPV9); assay: Biacore, biotin-captured cFcRn, pH 7.4, 1000 nM antibody
[15] = biological target: biotinylated cynomolgus FcRn (cynomolgus) (UniProt Q8SPV9); assay: Biacore, biotin-captured cFcRn, pH 8.0, 1000 nM antibody
[16] = biological target: biotinylated cynomolgus FcRn (cynomolgus) (UniProt Q8SPV9); assay: Biacore, biotin-captured cFcRn, pH 7.4
[17] = biological target: biotinylated human FcRn (human) (UniProt P55899); assay: Biacore, biotin-captured hFcRn, pH 6.0
[18] = biological target: biotinylated human FcRn (human) (UniProt P55899); assay: Biacore, biotin-captured hFcRn, pH 9.0, 1000 nM antibody
rat FcRn (rat) [19] = biological target: rat FcRn (rat) (UniProt P13599); assay: Biacore, pH 6.0, apparent KD
[20] = biological target: biotinylated human FcRn (human) (UniProt P55899); assay: Biacore, pH 6.0, apparent KD
[21] = biological target: biotinylated human FcRn (human) (UniProt P55899); assay: Biacore SPR, pH 6.0; remark: listed apart in the source
[22] = biological target: FcRn immobilised on the FcRn affinity column (biotinylated cynoFcRn in one experiment, biotinylated hFcRn in another); assay: FcRn affinity chromatography, linear pH gradient; species of the immobilised FcRn not given
rat FcRn (rat) [23] = biological target: rat FcRn (rat) (UniProt P13599); assay: Biacore SPR, pH 7.4, 1000 nM antibody
[24] = biological target: biotinylated human FcRn (human) (UniProt P55899); assay: Biacore SPR, pH 7.4, 1000 nM antibody
[25] = biological target: biotinylated human FcRn (human) (UniProt P55899); assay: Biacore, pH 6.0
[26] = biological target: biotinylated human FcRn (p51 subunit residues 24-297 with C-terminal Avi-tag; beta2-microglobulin residues 21-119) (human) (UniProt P55899); assay: Biacore; affinity at pH 6.0 (M^-1) over steady state RU at pH 7.4
[27] = biological target: Human CD16a (FcγRIIIa V158) with C-terminal HPC4 tag (human) (UniProt P08637); assay: Biacore, FcγRIIIa V158 captured, steady-state fit, apparent KD
Human CD16a (FcγRIIIa V158) with C-terminal HPC4 tag (human), sequence (P08637 17-208 F176V): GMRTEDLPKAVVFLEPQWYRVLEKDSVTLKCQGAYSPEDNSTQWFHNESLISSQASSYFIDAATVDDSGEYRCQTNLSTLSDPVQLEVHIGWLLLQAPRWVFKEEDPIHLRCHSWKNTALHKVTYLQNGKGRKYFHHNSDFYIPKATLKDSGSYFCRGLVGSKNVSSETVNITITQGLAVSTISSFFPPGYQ

rat FcRn (rat) [28] = biological target: rat FcRn (rat) (UniProt P13599); assay: Biacore, pH 7.4, steady state response
[29] = biological target: biotinylated human FcRn (human) (UniProt P55899); assay: Biacore, pH 7.4, steady state response
rat FcRn (rat) [30] = biological target: rat FcRn (rat) (UniProt P13599); assay: Biacore, pH 6.0
[31] = biological target: biotinylated human FcRn (p51 subunit residues 24-297 with C-terminal Avi-tag; beta2-microglobulin residues 21-119) (human) (UniProt P55899); assay: Biacore; inverse ratio (RU at pH 7.4 over affinity at pH 6.0)

rat FcRn (rat), sequence (P13599 23-298 limits assumed, chain 1 of 2): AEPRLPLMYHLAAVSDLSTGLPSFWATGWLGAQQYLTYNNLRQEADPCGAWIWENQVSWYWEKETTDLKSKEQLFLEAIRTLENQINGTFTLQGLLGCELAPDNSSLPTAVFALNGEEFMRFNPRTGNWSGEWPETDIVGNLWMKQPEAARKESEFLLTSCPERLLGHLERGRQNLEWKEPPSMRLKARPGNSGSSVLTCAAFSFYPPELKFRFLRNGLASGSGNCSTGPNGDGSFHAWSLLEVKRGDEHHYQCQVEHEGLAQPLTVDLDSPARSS
rat FcRn (rat), sequence (P07151 21-119 limits assumed, chain 2 of 2, further chain): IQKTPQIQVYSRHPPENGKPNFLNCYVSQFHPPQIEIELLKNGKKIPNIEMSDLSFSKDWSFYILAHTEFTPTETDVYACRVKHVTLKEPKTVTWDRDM

Row | Steady State RU [1] [RU] | Steady State RU (rat FcRn (rat) [2]) [RU] | Steady State RU [3] [RU] | Steady State RU [4] [RU] | Kd [5] [nM] | Steady State Binding, pH 7.4 (RU) [6] [RU] | Steady State RU [7] [RU] | Ka [8] [M⁻¹] | Kd (rat FcRn (rat) [9]) [nM] | Kd [10] [nM] | Kd [11] [nM] | Kd [12] [nM] | Kd [13] [nM] | Steady State RU [14] [RU] | Steady State RU [15] [RU] | Kd [16] [nM] | Steady State RU [18] [RU] | Kd (rat FcRn (rat) [19]) [nM] | Kd [20] [nM] | FcRn affinity column elution pH [22] [pH] | Substance | further results
1 | 1 | 67.9 | 54.1 | 125 | 1300 | 54.1 | 188 | 1.2e+08 | 0.26 | 8.32 | 65 | 3300 | 20 | 147 | 238 | 83 |  |  |  |  | mAb1 YTTY (M252Y/N434Y) (antibody) | 
2 | 6.3 |  |  | 157 | 490 | 80.2 | 264 | 2.35e+08 |  |  | 50 | 670 | 1.9 | 196 | 325 | 56 | 4.6 |  |  |  | mAb1 YDQY (M252Y/T256D/T307Q/N434Y) (antibody) | Kd [17]: 2.7 nM
3 |  | 31.3 | 6.6 |  |  |  |  |  | 58 | 5720 |  |  |  |  |  |  |  | 58 | 5720 | 7.86 | mAb1 T307Q (antibody) | Kd [21]: > 3000 nM; Steady State RU (rat FcRn (rat) [23]): 24.3 RU; Steady State RU [24]: 6.4 RU
4 |  | 13 | 4.2 | 0.2 |  |  | 0.2 |  | 207 |  |  |  | 660 | 1.5 | 1.4 |  |  |  |  | 7.37 | mAb1 wildtype (WT) human IgG1 antibody | Kd [21]: 2380 nM; Kd [17]: 1300 nM; Steady State RU (rat FcRn (rat) [23]): 12.2 RU; Steady State RU [24]: 4.3 RU
5 |  |  | 25.5 |  |  |  |  |  |  | 137 |  |  |  |  |  |  |  |  | 137 |  | mAb1 N434Y (antibody; other documents disagree on this pair) | koff [21]: 0.05 s⁻¹; kon [21]: 360000 M⁻¹ s⁻¹; koff [10]: 0.052 s⁻¹; kon [10]: 359000 M⁻¹ s⁻¹; Steady State RU [24]: 22.6 RU; koff [25]: 0.05 s⁻¹; kon [25]: 360000 M⁻¹ s⁻¹
6 | 2.2 |  |  | 140 | 2900 | 68.6 | 196 | 1.11e+08 |  |  | 82 | 2700 | 4.3 | 176 | 245 | 95 | 1.4 |  |  |  | mAb1 YDQF (M252Y/T256D/T307Q/N434F) (antibody) | 
7 |  | 66.1 | 15.9 |  |  | 15.9 |  | 8.47e+06 | 5.21 | 118 |  |  |  |  |  |  |  | 5.2 | 118 | 8.14 | mAb1 YTWN (M252Y/T307W) (antibody) | koff (rat FcRn (rat) [9]): 0.00109 s⁻¹; kon (rat FcRn (rat) [9]): 208000 M⁻¹ s⁻¹; koff [10]: 0.057 s⁻¹; kon [10]: 483000 M⁻¹ s⁻¹; Ratio (pH 6.0/pH 7.4) [26]: 533000; Kd [27]: 896 nM; Steady State RU (rat FcRn (rat) [28]): 66.1 RU; Steady State RU [29]: 15.9 RU; koff (rat FcRn (rat) [30]): 0.0011 s⁻¹; kon (rat FcRn (rat) [30]): 21000 M⁻¹ s⁻¹; koff [25]: 0.057 s⁻¹; kon [25]: 480000 M⁻¹ s⁻¹
8 | 3.8 |  |  | 132 | 3200 |  |  |  |  |  | 74 | 2400 | 8.3 | 152 | 268 | 76 | 2.7 |  |  |  | YTEKF hIgG1 benchmark (M252Y/S254T/T256E/H433K/N434F) (antibody) | Kd [17]: 15 nM
9 |  | 55.1 | 9.8 |  |  | 9.8 |  | 7.81e+06 | 8.43 | 128 |  |  |  |  |  |  |  | 8.4 | 128 | 7.83 | mAb1 YETN (M252Y/T256E) (antibody) | koff (rat FcRn (rat) [9]): 0.00273 s⁻¹; kon (rat FcRn (rat) [9]): 324000 M⁻¹ s⁻¹; koff [10]: 0.0757 s⁻¹; kon [10]: 592000 M⁻¹ s⁻¹; Ratio (pH 6.0/pH 7.4) [31]: 1.25e-06; Ratio (pH 6.0/pH 7.4) [26]: 797000; Kd [27]: 878 nM; Steady State RU (rat FcRn (rat) [28]): 55.1 RU; Steady State RU [29]: 9.8 RU; koff (rat FcRn (rat) [30]): 0.0027 s⁻¹; kon (rat FcRn (rat) [30]): 32000 M⁻¹ s⁻¹; koff [25]: 0.076 s⁻¹; kon [25]: 590000 M⁻¹ s⁻¹
10 | 6.5 |  |  | 133 | 1100 | 75.1 | 232 | 1.06e+08 |  |  | 65 | 2500 | 7.7 | 159 | 292 | 70 | 4 |  |  |  | mAb1 YTWY (M252Y/T307W/N434Y) (antibody) | 
11 | 1.9 |  |  | 120 | 2500 | 65.4 | 141 | 9.01e+07 |  |  | 76 | 8700 | 13 | 134 | 183 | 64 | 0.6 |  |  |  | mAb1 YDTY (M252Y/T256D/N434Y) (antibody) | Kd [17]: 15 nM
12 |  | 50.5 |  |  |  |  |  |  | 25 | 3100 |  |  |  |  |  |  |  | 25 | 3100 | 7.88 | mAb1 M252Y (antibody) | Kd [21]: > 3000 nM; Steady State RU (rat FcRn (rat) [23]): 57.7 RU
13 | 5.4 |  |  | 141 | 1300 |  | 245 |  |  |  | 61 | 1900 | 6.1 | 162 | 303 | 63 |  |  |  |  | mAb1 YEWY (M252Y/T256E/T307W/N434Y) (antibody) | 
14 | 3.4 |  |  | 136 | 2500 |  | 213 |  |  |  | 79 | 2100 | 3.7 | 157 | 264 | 80 | 2.4 |  |  |  | mAb1 YEQY (M252Y/T256E/T307Q/N434Y) (antibody) | Kd [17]: 4.8 nM
15 |  |  |  |  |  | 19.8 |  | 8.7e+06 |  |  |  |  |  |  |  |  |  | 5.1 | 115 | 8.51 | mAb1 YDQN (M252Y/T256D/T307Q) (antibody) | Ratio (pH 6.0/pH 7.4) [31]: 2.28e-06; Ratio (pH 6.0/pH 7.4) [26]: 439000; Kd [27]: 1060 nM; Steady State RU (rat FcRn (rat) [28]): 65.2 RU; Steady State RU [29]: 19.8 RU; koff (rat FcRn (rat) [30]): 0.0003 s⁻¹; kon (rat FcRn (rat) [30]): 5000 M⁻¹ s⁻¹; koff [25]: 0.028 s⁻¹; kon [25]: 250000 M⁻¹ s⁻¹
16 |  |  |  |  |  | 15.2 |  | 4.59e+06 |  |  |  |  |  |  |  |  |  | 7.8 | 218 | 8.12 | mAb1 YEQN (M252Y/T256E/T307Q) (antibody) | Ratio [31]: 3.31e-06; Ratio (pH 6.0/pH 7.4) [26]: 302000; Kd [27]: 1620 nM; Steady State RU (rat FcRn (rat) [28]): 61.8 RU; Steady State RU [29]: 15.2 RU; koff (rat FcRn (rat) [30]): 0.0004 s⁻¹; kon (rat FcRn (rat) [30]): 5000 M⁻¹ s⁻¹; koff [25]: 0.041 s⁻¹; kon [25]: 190000 M⁻¹ s⁻¹
17 |  | 23.2 |  |  |  |  |  |  | 86 | 6700 |  |  |  |  |  |  |  | 86 | 6700 | 7.82 | mAb1 T256D (antibody) | Kd [21]: > 3000 nM; Steady State RU (rat FcRn (rat) [23]): 30.4 RU
